These results are taken from PMC5982114 (Arteriosclerosis, thrombosis, and vascular biology, 2018).

For assay [1], the target named is Protein S (human) (UniProt P07225). As to the kind of experiment: fluorescence polarisation. (Polarisation of emitted light reports the rotation of a fluorescent probe.)
Assay [2] deals with Alexa-Fluor-488-labeled PS (human) (UniProt P07225). As to the kind of experiment: flow cytometry on cells. (In flow cytometry, cells or beads pass a laser one at a time.)
Assay [3] deals with FIXa K126A (human) (UniProt P00740).
Assay [4] has as its target FIXa R165A (human) (UniProt P00740).
Assay [5] concerns the target FIXa K132A/R170A (human) (UniProt P00740).
For assay [6], the target named is FIXa Padua mutant (R170L) (human) (UniProt P00740).
The target in assay [7] is FIXa K132A (human) (UniProt P00740).
The target in assay [8] is FIXa N129A (human) (UniProt P00740).
The target of assay [9] is FIXa R150A (human) (UniProt P00740).
The target in assay [10] is DEGR-FIXa K132A (human) (UniProt P00740). As to the kind of experiment: other fluorescence titration.
For assay [11], the target named is DEGR-labelled des-Gla FIXa (human). As to the kind of experiment: other fluorescence titration.
For assay [12], the target named is DEGR-FIXa R165A (human) (UniProt P00740). As to the kind of experiment: other fluorescence titration.
Assay [13] has as its target DEGR-FIXa Padua mutant (R170L) (human) (UniProt P00740). The experiment in a line: other fluorescence titration.
Assay [14] concerns the target DEGR-FIXa R150A (human) (UniProt P00740). The experiment in a line: other fluorescence titration.
Assay [15] addresses DEGR-FIXa K126A (human) (UniProt P00740). The experiment in a line: other fluorescence titration.
Assay [16] has as its target DEGR-FIXa N129A (human) (UniProt P00740). As to the kind of experiment: other fluorescence titration.
The target in assay [17] is des-Gla FIXa (human).
Assay [18] deals with Factor IXa wild type (human, UniProt P00740 47-191; P00740 227-461). As to the kind of experiment: cell-based or functional assay.

In general, IC50 refers to the concentration that inhibits the measured activity by half. High values mean weaker potency, low ones greater potency. Take “FIXa R165A (from UniProt P00740 47-191) (enzyme)”: in [1], the IC50 amounted to 68 nM.
For “fluorescently labeled des-Gla FIXa (domain or fragment)”, the median fluorescence intensity in [2] turned out to be 4000.
Molecule “FIXa K132A (from UniProt P00740 47-191) (enzyme)” returned an IC50 in assay [1] of 213 nM. That is a sub-micromolar value.
On the same count and under the same terms, next, “FIXa Padua mutant (R170L) (from UniProt P00740 47-191) (enzyme)”: 163 nM.
Still for that read-out and setting: next, zymogen form of FIX (natural protein): 200 nM.
On the same count and under the same terms, next, “FIXa K126A (from UniProt P00740 47-191) (enzyme)”: 140 nM; “FIXa N129A (from UniProt P00740 47-191) (enzyme)”: 92 nM; “FIXa R150A (from UniProt P00740 47-191) (enzyme)”: 43 nM.
Turning to des-Gla FIXa (domain or fragment), in [1], the IC50 was determined as 135 nM.

B1: Protein S (natural protein, human, UniProt P07225 42-676, looked up)
chain: ANSLLEETKQGNLERECIEELCNKEEAREVFENDPETDYFYPKYLVCLRSFQTGLFTAARQSTNAYPDLRSCVNAIPDQCSPLPCNEDGYMSCKDGKASFTCTCKPGWQGEKCEFDINECKDPSNINGGCSQICDNTPGSYHCSCKNGFVMLSNKKDCKDVDECSLKPSICGTAVCKNIPGDFECECPEGYRYNLKSKSCEDIDECSENMCAQLCVNYPGGYTCYCDGKKGFKLAQDQKSCEVVSVCLPLNLDTKYELLYLAEQFAGVVLYLKFRLPEISRFSAEFDFRTYDSEGVILYAESIDHSAWLLIALRGGKIEVQLKNEHTSKITTGGDVINNGLWNMVSVEELEHSISIKIAKEAVMDINKPGPLFKPENGLLETKVYFAGFPRKVESELIKPINPRLDGCIRSWNLMKQGASGIKEIIQEKQNKHCLVTVEKGSYYPGSGIAQFHIDYNNVSSAEGWHVNVTLNIRPSTGTGVMLALVSGNNTVPFAVSLVDSTSEKSQDILLSVENTVIYRIQALSLCSDQQSHLEFRVNRNNLELSTPLKIETISHEDLQRQLAVLDKAMKAKVATYLGGLPDVPFSATPVNAFYNGCMEVNINGVQLDLDEAISKHNDIRAHSCPSVWKKTKNS
The Kd is the free concentration of one partner at which half of the binding sites on the other are occupied at equilibrium, for simple one-to-one binding. Lower therefore signals higher affinity. B1: the Ki of inhibition by PS of FX activation by FIXa-phospholipid (S-2765) was found to be 100 nM in [3]; 33 nM in assay [4]; 271 nM in assay [5]; 175 nM in assay [6]; 132 nM in [7]; 72 nM in assay [8]. The Ki of inhibition by PS of FX activation by FIXa-phospholipid (S-2765) in assay [9] was found to be 48 nM; in assay [18] it was 35 nM. Moreover, the Kd in [10] turned out to be 148 nM; in [11] it was 124 nM; in [12] it was 54 nM; in assay [13], 157 nM; in assay [14], 48 nM; in assay [15] it was 118 nM. In [16], the dissociation constant Kd is 77 nM. In addition, in assay [17], the Ki of inhibition by PS of FX activation in the Xase complex (FIXa-FVIIIa) worked out at 120 nM.
